This is an account of results in patent US20240209044.

Series [1] concerns ZAP, zeta activating peptide, the PKCzeta uORF-encoded peptide.
Series [2] concerns T1, ZIP, zeta inhibitory peptide, the pseudo-substrate peptide of the PKCzeta regulatory domain.
T1 sequence: SIYRRGARRWRKL

With “PKCdelta, HA-tagged, immunoprecipitated from HEK293T lysate”, in series [1], the “phosphorylation of MBP by PKC isoforms (32P-γATP in vitro kinase assay)” value was “enhanced the phosphorylation of PKC isoforms of the novel PKC sub-family of PKCzeta, PKCdelta and PKCepsilon”.

As to “PKCgamma, HA-tagged, immunoprecipitated from HEK293T lysate”, the “phosphorylation of MBP by PKC isoforms (32P-γATP in vitro kinase assay)” value in series [1] is “the peptide had no effect on the phosphorylation of MBP by the PKC isoforms PKCeta (PKCη), PKCtheta (PKCθ), PKCgamma (PKCγ), and PKCalpha (PKCα)”.

Regarding “PKMzeta, truncated version of PKCzeta containing only the kinase domain”, the “kinase activity (phosphorylation of MBP, 32P-γ-ATP in vitro kinase assay, dose series of peptide)” value in series [2] was “the known PS ZIP peptide inhibits their activity”; in series [1], “the ZAP peptide activates the kinase activity of both PKCzeta and PKMzeta”.
